Experiment: yeast display, Sf9 membrane polyspecificity reagent, FACS + sequencing; frameworks hold sequencing errors
In short: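 Genes from sorted yeast were amplified by colony PCR, read by MiSeq 2 × 250 sequencing and filtered on CDR length. These cells carried a synthetic nanobody library in Saccharomyces cerevisiae BJ5465 and were sorted by FACS into low and high (top ~1%) gates on anti-HA and streptavidin fluorescence. Polyreactivity is labelled according to the gate of origin.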

QVQLVESGGGLVQAGGSLRLSCAASGFIFARNAMGWYRQAPGKERELVARITKRGGSTFYADSVKGRFTISRDNAKNTVYLQMNSLKPEDPAVYYCNADGYHGHVEGDYWGQGTQVTVSS
polyreactivity (PSR sort gate): high polyreactivity

QVQLVESGGGLVQAGGSLRLSCAASGFIFARYAMGWYRQAPGKERELVASITRRGGSTYYADSVKGRFTISRDNAKNTVYLQMNSLKPEDTAVYYCARPNLLSGDYWGQGTQVTVSS
polyreactivity (PSR sort gate): high polyreactivity

QVQLVESGGGLVQAGGSLRLSCAASGFIFASYAMGWYRQAPGKERELVAAISWRGGSTYYADSVKGRFTISRDNAKNTVYLQMNSLKPEDTAVYYCKAYVYVGTGRGYDTLDYWGQGTQVTVSS
polyreactivity (PSR sort gate): low polyreactivity

QVQLVESGGGLVQAGGSLRLSCAASGFIFATNAMGWYRQAPGKERELGASISSGDNTNYADSVKGRFTISRDNAKNTVYLQMNSLKPEHTAVYYCAAANKGPDQADYHYDQWGEYEYWGQGTQVTVSS
polyreactivity (PSR sort gate): low polyreactivity

QVQLVESGGGLVQAGGSLRLSCAASGFIFATYAMGWYRQAPGKERELVAAISRRGVRTNYADSVKGRFTISRDNAKNTVYLQMNSLKQEDTAVYYCNAQSHYGKIPMYYWGQGTQVTVSS
polyreactivity (PSR sort gate): high polyreactivity

QVQLVESGGGLVQAGGSLRLSCAASGFIFAYYAMGWYRQAAGKERELVAAITSDGSTYYADSVKGRFTISRDNAKNTVYLQMNSLKPEDTAVYYCNTYWVLRPGYNYWGQGTQVTVSS
polyreactivity (PSR sort gate): high polyreactivity

QVQLVESGGGLVQAGGSLRLSCAASGFIFAYYAMGWYRQAPGKERELVAAISKRGGSTYYADSVKGRFTISRDNAKNTVYLQMNSLKPEDTAVYYCAADGHGGYGYWGQGTQVTVSS
polyreactivity (PSR sort gate): high polyreactivity

QVQLVESGGGLVQAGGSLRLSCAASGFIFAYYAMGWYRQAPGKERELVAAITIDGSTNYADSVKGRFTISRDNAKNTVYLQMNSLKPEDTAVYYCAAADHPPVWYGYWGQGTQVTVSS
polyreactivity (PSR sort gate): low polyreactivity

QVQLVESGGGLVQAGGSLRLSCAASGFIFAYYVMGWYRQAPGKERELVAAITSRGGRTYYADSVKGRFTISRDNAKNTVYLQMNSLKPEDTAVYYCAAYRQLVNLREDYWGQGTQVTVSS
polyreactivity (PSR sort gate): high polyreactivity

QVQLVESGGGLVQAGGSLRLSCAASGFIFDAYVMGWYRQAPGKERELVAAITSSGGSTYYADSVKGRFTISRDNAKNTVYLQMNSLKPEDTAVYYCAATYWPWFVGYTYDLDYWGQGTQVTVSS
polyreactivity (PSR sort gate): low polyreactivity

QVQLVESGGGLVQAGGSLRLSCAASGFIFDDNAMGWYRQAPGKERELVAAITSGGGSTYYADSVKGRFTISRDNAKNTVYLQMNSLKQEDTAVYYCNAVPSQHDEFDSWGQGTQVTVSS
polyreactivity (PSR sort gate): low polyreactivity

QVQLVESGGGLVQAGGSLRLSCAASGFIFDDYARGWYRQAPGKERELVADIDYSGGSRYYADSVKGRFTISRDNAKNPVYLQMTSLKPEETAVYYGTAYYGILYYLLDYWGQGTQVTVSS
polyreactivity (PSR sort gate): high polyreactivity

QVQLVESGGGLVQAGGSLRLSCAASGFIFDGNAMGWYRQAPGKERELVAAIRSGGRPTYAPSVKGRFTSSRDNAKNTVDLQMNSLNPEDTAVYYCAARSIYPYYYRRDNRYYYWGQGTQVTVSS
polyreactivity (PSR sort gate): high polyreactivity

QVQLVESGGGLVQAGGSLRLSCAASGFIFDGYAMGWYRQAPGKERELVADISSVGSTYYADSVKGRFTISRDNAKNTVYLQMNSLKPEDTAVYYCAAVRFYTYNYWGQGTQVSVSS
polyreactivity (PSR sort gate): low polyreactivity

QVQLVESGGGLVQAGGSLRLSCAASGFIFDGYAMGWYSQAPGKERELVAAIDSGGDRTYYADSVKGRFTISRDNAKNTVYLQMNSLKPEDTAVYYCAADSSDPTGYDYWGQGTQVTVSS
polyreactivity (PSR sort gate): low polyreactivity

QVQLVESGGGLVQAGGSLRLSCAASGFIFDGYTMGWYRQAPGKERELVAAITTSGTSTYYADSVKGRFTISRDNAKNTVYLQMNSLKPEDTADYYCAARQYRHRVKYYYWGQGTQVTVSS
polyreactivity (PSR sort gate): high polyreactivity

QVQLVESGGGLVQAGGSLRLSCAASGFIFDLYAMGWYRQAPGKERELVAAITYSGGSTYYADSVKGRFTISRDNAKNTVYLQMNSLKPEDTAVYYCATVEKFYEYDHWGQGTQVTVSS
polyreactivity (PSR sort gate): low polyreactivity

QVQLVESGGGLVQAGGSLRLSCAASGFIFDNYAMGWYRQAPGKERELVAAISRSGGSTYYADSVKGRFTISRDNAKNTVYLQMNSLKPEDTAVYYCAARGKFGIVRYDYWGQGTQVTVSS
polyreactivity (PSR sort gate): high polyreactivity

QVQLVESGGGLVQAGGSLRLSCAASGFIFDNYAMGWYRQAPGKERELVAAISRSGGSTYYADSVKGRFTISRDNAKNTVYLQMNSLKPEDTAVYYCATSGPRGWSLHDYWGQGTQVTVSS
polyreactivity (PSR sort gate): high polyreactivity

QVQLVESGGGLVQAGGSLRLSCAASGFIFDRNAMGWYRQAPGKEREFVAAITRRGGTTYYADSVKGRFTISRDNAKNTVYLQMNSLKPEDTAVYYCAATYLHVYRRRFYYWGQGTQVTVSS
polyreactivity (PSR sort gate): high polyreactivity

QVQLVESGGGLVQAGGSLRLSCAASGFIFDSYAMGCYRQAPGKETELVAAISYSGGNTYYADSVKGRFTISRDNAQITVYLQMNSLKPEDTAFYYCAAEWSDSRWWRLWWYGEDDYWGQGTQVTVSS
polyreactivity (PSR sort gate): high polyreactivity

QVQLVESGGGLVQAGGSLRLSCAASGFIFDSYAMGWYRQAPGKERELVAAISWSGSSTYYADSVKGRFTISRDNAKNTVYLQMNSLKPEDTAVYYCAALVYPYWGCSMYYWGQGTQVTVSS
polyreactivity (PSR sort gate): high polyreactivity

QVQLVESGGGLVQAGGSLRLSCAASGFIFDSYAMGWYRQAPGKERELVAAITTSGGRSYYADSVKGRFTISRDNAKNTVYLQMNSLKPEDTAVYYCAAKYTARWGFDYWGQGTQVTVSS
polyreactivity (PSR sort gate): high polyreactivity

QVQLVESGGGLVQAGGSLRLSCAASGFIFDSYAMGWYRQAPGKERELVAAITYSGSSTYYADSVKGRFTISRDNAKNTVYLQMNSLKPEDTAVYYCAAVWRYSHLYGYWGQGTQVTVSS
polyreactivity (PSR sort gate): high polyreactivity

QVQLVESGGGLVQAGGSLRLSCAASGFIFDVYAMGWYRQAPGKERELVAAISSSGGRTYYADSVKGRFTISRDNAKNTVYLQMNSLKPEDTAVYYCAAKTHSRTKVYTADYWGQGTQVTVSS
polyreactivity (PSR sort gate): high polyreactivity

QVQLVESGGGLVQAGGSLRLSCAASGFIFDVYAMGWYRQAPGKERELVAAITGSGSITYYADSVKGRFTISRDNAKNTVYLQMNSLKPEDTAVYYCAALGPTQDRDYWGQGTQVTVSS
polyreactivity (PSR sort gate): high polyreactivity

QVQLVESGGGLVQAGGSLRLSCAASGFIFDYNAMGWYRQAPGKERELVAAISWSGSRTYYAVSVKGRFTISRDNAKNTVYLQMNSLKPEDTAVYYCAAEWSGEAAWQVGAEDDYWGQGTQVTVSS
polyreactivity (PSR sort gate): low polyreactivity

QVQLVESGGGLVQAGGSLRLSCAASGFIFDYNVMGWYRQAPGKKGSWVAAISWSGGSTYYADSVKGRFTISRDNAKNTVYLQMNSLKPEDTAVYYCAARGTSTYRGTGRYDYWGQGTQVTVSS
polyreactivity (PSR sort gate): high polyreactivity

QVQLVESGGGLVQAGGSLRLSCAASGFIFDYYAMGWYRQAPGKERELVAAITSRGGSTYYADSVKGRFTISRDNAKNTVYLQMNSLKQEDTAVYYCAARRRSAEYNYWGHGTQVTVSS
polyreactivity (PSR sort gate): high polyreactivity

QVQLVESGGGLVQAGGSLRLSCAASGFIFEAYAMGWYRQAPGKERELVAAIDSGGSTDYADSVKGRFTISRDNAKNTVYLQMNSLTPEDTAVYYCIAERAYLLWYNFDYWGQGTKVTVSS
polyreactivity (PSR sort gate): low polyreactivity

QVQLVESGGGLVQAGGSLRLSCAASGFIFEGYAMGWYRQAPGKERELVAAINWSGTTTYYADSVKGRFTISRDNAKNTVYLQMNSLKPEDTAVYYCNARYYVLRGYDYWGQGTQVTVSS
polyreactivity (PSR sort gate): low polyreactivity

QVQLVESGGGLVQAGGSLRLSCAASGFIFEPYAMGWYRQAPGKERELVAAISSGGSTYADSVKGRFTISRDNAKNTVYLQMISLKPEDTAVYYCAADSYYSVWGFYYWGQGTQVTVSS
polyreactivity (PSR sort gate): low polyreactivity

QVQLVESGGGLVQAGGSLRLSCAASGFIFERNAMGWYRQAPGKERELVAGISNNGGSTYYADSVKGRFTISRDNAKNTVYLQMNSLKPEDTAVYYCARDPNDDNSFPYDYWGQGTQVTVSS
polyreactivity (PSR sort gate): low polyreactivity

QVQLVESGGGLVQAGGSLRLSCAASGFIFETYAMGWYRQEPGKERELVAAISRGASTYYADSVKGRFTISRDNAKNTVYLQMNSLKPEDTAVYYCAAKRLSWHRYGYWGQGTQVTVSS
polyreactivity (PSR sort gate): low polyreactivity

QVQLVESGGGLVQAGGSLRLSCAASGFIFEWNAMGWYRQAPGKERELVASITFGGGNTYYADSVKGRFTISRDNAKNTVYLQMNSLKPEDTAVYYCAADDGVTYRGIIFSYLGQGTQVTVSS
polyreactivity (PSR sort gate): low polyreactivity

QVQLVESGGGLVQAGGSLRLSCAASGFIFEWYDMGWYRQAPGKERELVASISWSGGSTYYADSVKGRFTISRDNAKNTVYLQMNSLKPEDTAVYYCNTPSYTYWHWYDYWGQGTQVTVSS
polyreactivity (PSR sort gate): high polyreactivity

QVQLVESGGGLVQAGGSLRLSCAASGFIFFEYAMGWYRQAPGKERELVAAISWSDDTTYYADSVKGRFTISRDNAKNTVYLQMNSLNPEDTAVYYCNVRYWGFYDYDYWGQGSQVTVSS
polyreactivity (PSR sort gate): low polyreactivity

QVQLVESGGGLVQAGGSLRLSCAASGFIFFINDMGWYRQAPGTERELVAAISWSGGSTYYADSVKGRFTISRDNAKNTVYLQMNSLKPEDTAVYYCNTDVPTAQYDYWGQGTQVTVSS
polyreactivity (PSR sort gate): low polyreactivity

QVQLVESGGGLVQAGGSLRLSCAASGFIFGANAMGWYRQAPGKERELVADINRGSTYYADSVKGRFTISRDNAKNTVYLQMNSLKPEDTAVYYCNRVYTQTFNPWGFEYWGQGTQVTVSS
polyreactivity (PSR sort gate): high polyreactivity

QVQLVESGGGLVQAGGSLRLSCAASGFIFGDYAMGWYRQAPGKERELVADINWTGGSTYYADSVKGRFTISRDNAKNTVYLQMNSLKPEDTAVYYCAKDDYAFLITWVDYWGQGTQVTVSS
polyreactivity (PSR sort gate): low polyreactivity

QVQLVESGGGLVQAGGSLRLSCAASGFIFGGDPMGWYRQARGSDRELVAAISSSGGRTYYADSVKRRFTISRDNAKNNVYLQLNSLKPEDTAVYSCAVPRFGSAAKRYYYWGQGTQVTVTS
polyreactivity (PSR sort gate): high polyreactivity

QVQLVESGGGLVQAGGSLRLSCAASGFIFGGYAMGWYRQAPGKEREFVAAIRQRGGSTYYADSVKGRFTISRDNAKNTVYLQMNSLKPEDTAVYYCAATVRAVQASVRYGYWGQGTQVTVSS
polyreactivity (PSR sort gate): high polyreactivity

QVQLVESGGGLVQAGGSLRLSCAASGFIFGGYAMGWYRQAPGKERELVAAISRSGGSTYYADSVKGRFTISRDNAKNTVDLQINSLKPEDTAVYYCYAVTRRQGFNYWGQGTQVTVSS
polyreactivity (PSR sort gate): high polyreactivity

From the nanobody polyreactivity screen of Harvey et al. (2022)
